# Assay results as given in patent US20230035798A1 (CAPELLA BIOSCIENCE, published 2023).
# Substitutions are numbered along the chain they refer to.
# B1: 3D12 (antibody, human IgG4, V domains shown)
# VH: QVQLQQPGAELVRPGASVTLSCKASDYTFTDSEIHWVKQTPVHGLEWIGEIDPETGGTAYNQKFKGKATLTADKSSSTAYMELRSLTSEDSAVYYCSRETDYFFDYWGQGTTLTVSS
# VL: DIQMTQSPASLSASVGETVTITCGASENIYGALNWYQRKQGKSPQLLIYGATNLADGMSSRFSGSGSGRQYSLKISSLHPDDVATYYCQNVLSTPWTFGGGTKLEIKR
# notes: chimeric: mouse variable domains on human IgG4 HC (S-to-P and L-to-E at 248) and human CL; also called Parental 3D12; 3D12 chimeric
# Assays:
# [1] = molecular target: T1, recombinant human soluble LIGHT, amino acids 74-240 (R&D Systems 664-LI-025) (human, UniProt O43557 74-240); experiment: cell-based or functional assay
# T1 chain: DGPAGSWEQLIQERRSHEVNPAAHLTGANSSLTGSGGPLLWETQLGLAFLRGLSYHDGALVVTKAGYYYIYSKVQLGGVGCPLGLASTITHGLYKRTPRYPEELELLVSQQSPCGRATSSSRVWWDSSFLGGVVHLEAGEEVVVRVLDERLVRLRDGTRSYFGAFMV
# [2] = molecular target: membrane LIGHT without residues 81-84 (EL4-NC-LIGHT cells) (human, UniProt O43557 1-240); experiment: cell-based or functional assay
# membrane LIGHT G188A = molecular target: T2, membrane LIGHT G188A (human, UniProt O43557 1-240); experiment: flow cytometry, transfected HEK293FF, mAb at EC50
# T2 construct: full-length LIGHT with the substitution on HEK293FF cells
# T2 chain: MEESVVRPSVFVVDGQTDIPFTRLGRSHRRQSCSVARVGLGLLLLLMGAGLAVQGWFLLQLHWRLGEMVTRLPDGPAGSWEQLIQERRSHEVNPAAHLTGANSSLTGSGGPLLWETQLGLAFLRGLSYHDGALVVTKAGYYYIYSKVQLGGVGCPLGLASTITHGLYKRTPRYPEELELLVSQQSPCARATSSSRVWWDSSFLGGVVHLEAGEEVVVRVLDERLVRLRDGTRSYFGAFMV
# Summary of the method: (§1)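 HEK293FF cells were lipofected with LIGHT construct plasmid and cultured 24 h at 37 °C before antibody staining. Binding was detected with anti-human IgG FITC or anti-mouse APC secondary, 30 min at 4 °C, by flow cytometry on 10,000 cells per sample, in duplicate.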
# membrane LIGHT S192A = molecular target: T3, membrane LIGHT S192A (human, UniProt O43557 1-240); experiment: flow cytometry, transfected HEK293FF, mAb at EC50
# T3 chain: T2 chain with A188G, S192A
# Summary of the method: as §1
# membrane LIGHT S194A = molecular target: T4, membrane LIGHT S194A (human, UniProt O43557 1-240); experiment: flow cytometry, transfected HEK293FF, mAb at EC50
# T4 chain: T2 chain with A188G, S194A
# Summary of the method: as §1
# [3] = molecular target: T5, human LIGHT (TNFSF14), full length, membrane-bound (214E allele) (human, UniProt O43557 1-240); experiment: DcR3-His (1 nM) competition, EL4-LIGHT, flow cytometry; 3.7 nM
# T5 construct: also called membrane LIGHT; human membrane LIGHT
# Procedure: (§2) EL4-LIGHT cells (0.25×10⁶) were preincubated with anti-membrane LIGHT mAbs (0-300 nM) for 15 min at 4° C. followed by incubation with DcR3-His tagged (1 nM, Creative BioMart; ref: TNFRSF6B-552H, lot: 962512) for 30 min at 4° C. The samples were then incubated with mouse anti-histag antibody (diluted 1:500, Biolegend, cat. no. 652502) for 30 minutes at 4° C., followed by incubation with anti-mouse APC (dil 1:500, BDBiosciences, cat. no. 550826) for 30 minutes at 4° C. The tubes were washed three times after each of the detection antibody stages and flow cytometry analysis was performed. Specific mean fluorescence intensity (MFI) obtained from the binding of DcR3-His to LIGHT on EL4 cells were used to determine the levels of competition binding.
# (§3) In humans, LIGHT is neutralized by DcR3, a unique soluble member of the TNFR superfamily, which tightly binds LIGHT (both soluble and membrane forms) and inhibits its interactions with HVEM and LTβR. A major binding determinant for DcR3 neutralization is the region T170-E178 on LIGHT (Liu et al. Structure 2014: 9; 1252-1262). […] In contrast the anti-LIGHT mAb F19, (from EP2292663) which binds both soluble LIGHT and membrane LIGHT equally well completely displaces DcR3 from binding to membrane LIGHT highlighting a surprising an important functional difference between the anti-membrane LIGHT mAbs of this invention and other neutralizing anti-LIGHT mAbs that have been raised against or screened against soluble LIGHT.
# [4] = molecular target: T5, human LIGHT (TNFSF14), full length, …; experiment: DcR3-His (1 nM) competition, EL4-LIGHT, flow cytometry; 1.23 nM
# Procedure: as §2, §3
# [5] = molecular target: T5, human LIGHT (TNFSF14), full length, …; experiment: DcR3-His (1 nM) competition, EL4-LIGHT, flow cytometry; 33.3 nM
# Procedure: as §2, §3
# T5 sequence (O43557 whole entry K214E): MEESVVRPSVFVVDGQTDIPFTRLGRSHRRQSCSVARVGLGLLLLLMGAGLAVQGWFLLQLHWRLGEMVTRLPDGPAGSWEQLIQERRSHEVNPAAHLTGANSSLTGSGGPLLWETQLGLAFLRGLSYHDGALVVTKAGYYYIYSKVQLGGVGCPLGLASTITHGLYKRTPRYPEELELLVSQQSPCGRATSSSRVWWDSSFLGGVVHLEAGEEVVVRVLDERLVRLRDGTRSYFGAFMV
# Chain of membrane LIGHT without residues 81-84 (EL4-NC-LIGHT cells) (O43557 other isoform, or with tags, fused parts or gaps): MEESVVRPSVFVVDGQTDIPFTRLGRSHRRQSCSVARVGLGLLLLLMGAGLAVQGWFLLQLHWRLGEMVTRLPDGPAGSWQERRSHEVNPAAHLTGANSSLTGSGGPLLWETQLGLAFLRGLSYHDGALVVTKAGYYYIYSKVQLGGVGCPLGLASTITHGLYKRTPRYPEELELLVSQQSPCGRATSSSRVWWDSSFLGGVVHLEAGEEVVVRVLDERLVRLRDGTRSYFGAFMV
binder,measurement,setting,value
B1,"IC50, nM soluble LIGHT (5 ng/ml; IL-8 release from HT-29 cells)",[1],3.4 nM
same,"IC50, nM membrane LIGHT (IL-8 release from HT-29 cells)",[2],0.1 nM
same,"binding, % of WT",membrane LIGHT G188A,20%
same,"binding, % of WT",membrane LIGHT S192A,84%
same,"binding, % of WT",membrane LIGHT S194A,2%
same,"DcR3-His binding, % of irrelevant mAb",[3],68.6%
same,"DcR3-His binding, % of irrelevant mAb",[4],72.8%
same,"DcR3-His binding, % of irrelevant mAb",[5],78.1%
